EC50 data for one molecule are collected here from paper PMC8678608.

The target of this experiment is human VEGF165 protein (human). Description: ELISA; plates coated with recombinant human PD-L1 or VEGF165 (100 ng/well, carbonate buffer); antibody 1 h at room temperature; detected with HRP goat anti-human Fc, TMB, 450 nm.

B1: HB0025 (anti-PD-L1/VEGFR1D2-Ig fusion protein) (bispecific antibody, V domains shown)
VH: QVQLVQSGAEVKKPGASVKVSCKASGYAFTGYTIHWVRQAPGQRLEWMGWFYPGSGTLKYSEKFQGRVTITRDKSLSTAYMELSSLRSEDTAVYYCARHGTGTLMAMDYWGQGTLVTVSS
VL: DVVMTQTPLSLSVTPGQPASISCKSSQSLANSYGNTYLSWYLHKPGQSPQLLIYGISNRFSGVPDRFSGSGSGTDFTLKISRVEAEDVGVYYCLQGTHQPPTFGQGTKLEIK
For orientation: EC50 means the concentration at which the effect is half-maximal. As for B1, the EC50 turned out to be 0.48 nM.
